Ends that are not written are not given here. * marks the point of attachment. Biotin = O=C1N[C@H]2[C@H](CS[C@H]2CCCCC(=O)*)N1
Key:
[1] = target: T1, human membrane dipeptidase (DPEP-1) (Homo sapiens, UniProt P16444); test: Membrane dipeptidase enzyme activity assay (Gly-D-Phe, fluorometric); format: biochemical; conditions: lysates of transfected Cos1 cells, substrate Gly-D-Phe
T1 construct: expressed in transfected cells; host or cells: Cos-1
T1 sequence (P16444 17-385): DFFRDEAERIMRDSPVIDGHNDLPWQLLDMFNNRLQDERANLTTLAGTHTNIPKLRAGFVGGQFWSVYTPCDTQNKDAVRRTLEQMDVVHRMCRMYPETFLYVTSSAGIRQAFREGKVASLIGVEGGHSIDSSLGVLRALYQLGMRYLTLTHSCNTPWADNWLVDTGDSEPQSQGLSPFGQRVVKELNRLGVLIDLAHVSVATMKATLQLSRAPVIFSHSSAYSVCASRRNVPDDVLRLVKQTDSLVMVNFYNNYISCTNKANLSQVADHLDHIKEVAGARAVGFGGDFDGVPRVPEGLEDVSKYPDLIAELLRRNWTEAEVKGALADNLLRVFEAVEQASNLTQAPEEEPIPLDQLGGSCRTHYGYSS
Experimental: 24 hours after transfection, DPEP-1 expressing cells weer reseeded on 24 well collagen coated (neutralized) plates and allowed to grow for 24 hours at 37° C. […] Cells were blocked with FBS/NBSA/Tween in PBS for 30 minutes on ice. […] After incubation, cells were washed with PBS and stained with DAPI for 4 minutes on ice. Cells were again washed with PBS, fixed using 4% paraformaldehyde and immunofluoresence microscopy was performed to assess binding. Proteins from human DPEP-1 transfected cells were isolated after 48 hours using octyl-glucoside/RIPA in the absence of protease inhibitors. […] Proteins from transfected cells were isolated after 48 hours using octyl-glucoside/RIPA lysis buffer and western blot analysis was performed to assess DPEP-1 expression using DPEP-1 antibody (Sigma).
The fluorescence signal generated from the conversion of D-Phe to […] in the presence of D-aminoacidoxidase and peroxidase was measured using a fluorescence plate reader.
Proteins from DPEP-1 transfected cells were isolated after 48 hours using octyl-glucoside/RIPA lysis buffer and western blot analysis was performed to assess DPEP-1 expression using a DPEP-1 specific antibody (Proteintech) (FIG. 24B).

[2] = target: T2, DPEP1 (Homo sapiens, UniProt P16444); test: Alanine-substituted peptide binding to DPEP1 transfected HEK 293 cells, immunofluorescence; set-up: expressed in transfected cells; host or cells: HEK 293; conditions: test peptide at 5 uM, 1 hr at room temperature
T2 sequence (P16444 17-385): T1 sequence (P16444 17-385)
Experimental: […] were transfected with DPEP1 or DPEP2, two days prior to assay and were plated onto collagen-coated coverslips one day prior. Then fixed 10 min with 3.7% formaldehyde in PBS, washed 3 times in PBS, incubated with Alanine-substituted test peptide at 5 uM each, 1 hr at room temperature, washed twice with PBS gently, incubated with 1/50 Alexa 568-straptavadin in PBS, 1 hr at room temperature, washed twice with PBS gently and added DAPI Mounted with DAKO Fluorescent mounting media and evaluated for binding under fluorescence microscope.

[3] = Circular dichroism spectroscopy of LSALT peptide and analogs; format: physicochemical; set-up: Inducible Helical Structure (50% TFE-benign): unit not given here; conditions: for Inducible Helical Structure (50% TFE-benign) / [θ] (222 nm) 50% TFE / % Inducible Helical Structure (Inducible/50% TFE) / [θ] (222 nm) Benign (No TFE): 222 nm; for % Inducible Helical Structure (Inducible/50% TFE): 50% TFE is considered 100% folded; for [θ] (222 nm) Benign (No TFE): benign buffer (100 mM KCl, 50 mM Na2HPO4/NaH2PO4, pH 7.0)
Experimental: The physical and chemical properties of protein therapeutics are critical factors that influence the ease of manufacturing, development and clinical use. The LSALT peptide was evaluated in terms of its solubility, aggregation state and stability using a variety of biophysical methods.
In circular dichroism spectroscopy the ellipticity value at 222 nm is a measure of a-helical content. 50% trifluoroethanol is a hydrophobic solvent and induces α-helical structure if the structure can be induced. All of the peptides tested can be induced to adopt α-helical structure. The peptides are random coils in benign conditions (non-denaturing). The buffer conditions were aqueous phosphate, pH 7.0.

Row | Compound | inhibition of human DPEP1 enzymatic activity [1] | inhibition of human DPEP1 enzymatic activity ([1]; listed as cilastatin) | inhibition of human DPEP1 enzymatic activity ([1]; listed as penicillamine) | binding to DPEP-1 by immunofluorescence (alanine mutants) [2] | Inducible Helical Structure (50% TFE-benign) [3] | [θ] (222 nm) 50% TFE [3] | % Inducible Helical Structure (Inducible/50% TFE) [3] [%] | [θ] (222 nm) Benign (No TFE) [3] | inducible α-helical structure (in words) ([3]; 50% trifluoroethanol)
1 | CC1(C)C[C@@H]1C(=O)N/C(=C\CCCCSC[C@H](N)C(=O)O)C(=O)O [Cilastatin] | inhibited the activity | can be inhibited |  |  |  |  |  |  | 
2 | CC(C)(S)[C@@H](N)C(=O)O [Penicillamine] | inhibited the activity |  | can be inhibited |  |  |  |  |  | 
3 | ASALTPSPSWLKYKAL [Pos 1] |  |  |  | decreased and increased binding to DPEP-1 |  |  |  |  | 
4 | Ac-LSALTPSPSWLKYKAL [Peptide A17] |  |  |  |  | 17,615 | −74897 | 23.5 | −57282 | 
5 | Ac-LSALTPSPSWLKYKAL-amide (Ac-LSALTPSPSWLKYKAL-NH2) [Peptide A18] |  |  |  |  | 40,612 | −78951 | 51.4 | −38340 | 
6 | Bio-ASALTPSPSWLKYKAL (Biotin-ASALTPSPSWLKYKAL) [Peptide A1] |  |  |  |  | 37,752 | −119807 | 31.5 | −82054 | 
7 | Bio-LAALTPSPSWLKYKAL [Peptide A2] |  |  |  |  | 51,374 | −117502 | 43.7 | −66128 | significantly enhances inducible α-helical structure
8 | Bio-LSAATPSPSWLKYKAL [Peptide A4] |  |  |  |  | 16,397 | −76916 | 21.3 | −60519 | 
9 | Bio-LSALAPSPSWLKYKAL [Peptide A5] |  |  |  |  | 29,755 | −79198 | 37.6 | −49443 | 
10 | Bio-LSALTGSPSWLKYKAL [Peptide A6] |  |  |  |  | 28,435 | −70926 | 40.1 | −42491 | 
11 | Bio-LSALTPAPSWLKYKAL [Peptide A7] |  |  |  |  | 20,988 | −70198 | 29.9 | −49209 | 
12 | Bio-LSALTPSASWLKYKAL [Peptide A8] |  |  |  |  | 9,444 | −42335 | 22.3 | −32890 | 
13 | Bio-LSALTPSPAWLKYKAL [Peptide A9] |  |  |  |  | 13,436 | −62889 | 21.4 | −49453 | 
14 | Bio-LSALTPSPSALKYKAL (Biotin-LSALTPSPSALKYKAL) [Peptide A10] |  |  |  |  | 9,583 | −35792 | 26.8 | −26209 | 
15 | Bio-LSALTPSPSWAKYKAL (Biotin-LSALTPSPSWAKYKAL) [Peptide A11] |  |  |  |  | 21,682 | −80196 | 27.0 | −58514 | 
16 | Bio-LSALTPSPSWLAYKAL (Biotin-LSALTPSPSWLAYKAL) [Peptide A12] |  |  |  |  | 8,451 | −36742 | 23.0 | −28292 | 
17 | Bio-LSALTPSPSWLKAKAL (Biotin-LSALTPSPSWLKAKAL) [Peptide A13] |  |  |  |  | 31,488 | −80841 | 39.0 | −49352 | 
18 | Bio-LSALTPSPSWLKYAAL (Biotin-LSALTPSPSWLKYAAL) [Peptide A14] |  |  |  |  | 14,068 | −39862 | 35.3 | −25794 | 
19 | Bio-LSALTPSPSWLKYKAA (Biotin-LSALTPSPSWLKYKAA) [Peptide A16] |  |  |  |  | 11,796 | −37070 | 31.8 | −25275 | 
20 | Bio-LSALTPSPSWLKYKAL-amide (Biotin-LSALTPSPSWLKYKAL-NH2) [Peptide A19] |  |  |  |  | 77,996 | −153947 | 50.7 | −75952 | 
21 | Bio-LSALTPSPSWLKYKGL (Biotin-LSALTPSPSWLKYKGL) [Peptide A15] |  |  |  |  | 23,450 | −92167 | 25.4 | −68717 | 
22 | Bio-LSGLTPSPSWLKYKAL [Peptide A3] |  |  |  |  | 18,865 | −68580 | 27.5 | −49714 | 
23 | LSALAPSPSWLKYKAL [Pos 5] |  |  |  | decreased and increased binding to DPEP-1 |  |  |  |  | 
24 | LSALTPSPSALKYKAL [Pos 10] |  |  |  | decreased and increased binding to DPEP-1 |  |  |  |  | 
25 | LSALTPSPSWLAYKAL [Pos 12] |  |  |  | decreased and increased binding to DPEP-1 |  |  |  |  | 
